Source: article PMC9359175

Assays:
Experiment in all cases: ITC; […]; 298 K; 20 mM HEPES pH 7.5, 150 mM NaCl; […]
[1] = target: 5HB-H4 (SARS-CoV-2 5-helix bundle, shortest construct) (SARS-CoV-2) (UniProt P0DTC2)
[2] = target: 5HB-H3 (SARS-CoV-2 5-helix bundle, truncated construct) (SARS-CoV-2) (UniProt P0DTC2)
[3] = target: 5HB-H1 (SARS-CoV-2 5-helix bundle, longest construct) (SARS-CoV-2) (UniProt P0DTC2)

“HR2P, 36-mer peptide derived from SARS-CoV-2 S HR2 (D1168-L1203)” was tested, and the Kd [1] was 446 nM, the Kd [2] was 18.4 nM and the Kd [3] was 9 nM.
